Results on 6 molecules are retold here after patent US20230331840A1 (published 2023).

In assay [1] the target is T1, Human CD22 extracellular segment conjugated His label (human, UniProt P20273 20-687). Put plainly: ELISA. A general note: An ELISA detects its analyte on a solid surface through an enzyme-linked reagent.
The target of assay [2] is T1, Human CD22 extracellular segment …. Description: BLI (Fortebio). (BLI is a label-free optical method that tracks binding on a fibre tip over time.)
The target in another assay is K562-CD22 (UniProt P20273 20-847). Description: FACS binding.

B1: CD22 antibody FC2-203 (antibody, V domains shown)
VH: QVQLQQPGAELVRPGASVKLSCKASGYTFSSYWINWVKQRPGQGLEWIGNIYPSDSYTNYNQKFKDKATLTVDKSSSTAYMQLSSPTSEDSAVYYCTREGHYYGSFGAMDYWGQGTSVTVSS
VL: DVQITQSPSYLAASPGETITINCRASKTISKYLAWYQEKPGKTNKLLIYSGSTLQSGIPSRFSGSGSGTDFTLTISSLEPEDFAMYYCQQHNEYPWTFGGGTKLEIKR
In general, EC50 refers to the concentration that produces a half-maximal response. Usually Kd stands for the equilibrium constant for the complex coming apart. Read a low Kd as a tighter complex. B1 came in with an EC50 in assay [1] of 0.457 nM. Besides, the Kd in assay [2] is 7.08 nM.

B2: RFB-4 (antibody, V domains shown)
VH: EVQLVESGGGLVKPGGSLKLSCAASGFAFSIYDMSWVRQTPEKRLEWVAYISSGGGTTYYPDTVKGRFTISRDNAKNTLYLQMSSLKSEDTAMYYCARHSGYGSSYGVLFAYWGQGTLVTVSA
VL: DIQMTQTTSSLSASLGDRVTISCRASQDISNYLNWYQQKPDGTVKLLIYYTSILHSGVPSRFSGSGSGTDYSLTISNLEQEDFATYFCQQGNTLPWTFGGGTKLEIK
In the assay with K562-CD22, B2 returned an EC50 of 0.632 nM.

B3: CD22 antibody FC2-201 (antibody, V domains shown)
VH: KVQLQQSGAGLVKPGASVKLSCKASGYTFTDSILHWLMQRSGQGLEWIGWFYPGSGSIKYNEKFKDKATLTADKSSSTVYMELSRLTSEDSAFYFCARHEDGYDGFAYWGQGTLVTVSA
VL: ENVLTQSPAIMSASLGEKVTMSCRASSSVNYIFWYQQKSDASPKLWIYYTSNLAPGVPARFSGSGSGNSYSLTISSMEGEDAATYYCQQFTSSPFTFGSGTKLEIKR
In assay [1], B3 returned an EC50 of 0.096 nM. This molecule returned a Kd in assay [2] of 0.0722 nM.

B4: CD22 antibody FC2-153 (antibody, V domains shown)
VH: QVQLQQSGAELMKPGASVKISCKATGYTFSSYWIEWVKQRPGHGLEWIGEILPGSGSTNYNEKFKGKATFTADTSSNTAYMQLSSLTSEDSAVYYCARWGQLGLFYAMDYWGQGTSVTVSS
VL: DIQMTQSPASLSASVGETVTITCRASENIYSYLAWYQQKQGKSPQLLVYNAKTLAEGVPSRFSGSGSGTQFSLKINSLQPEDFGSYYCQHHYGSPLTFGAGTKLELKR
As to B4, in assay [1], the EC50 is 0.145 nM. This molecule registered a Kd in assay [2] of 0.92 nM.

B5: CD22 antibody FC2-070 (antibody, V domains shown)
VH: QVQLQQPGAELVKPGTSVKLSCKASGYNFTSYWINWVKLRPGQGLEWIGDIYPGSGNTNYNEKFKSKATLTVDTSSTTAYMQLSSLASEDSALYYCARRGYLDYWGQGTTLTVSS
VL: DIQMTQSPASLSASVGETVTITCRASGNIHNYLAWYQQKQGKSPQLLVYNAKTLADGVPSRFSGSGSGTQYSLTINSLQPEDFGSYYCQHFWSTPLTFGAGTKLELKR
Molecule B5 registered an EC50 in assay [1] of 0.154 nM. In assay [2], this molecule came in with a Kd of 0.569 nM.

B6: CD22 antibody FC2-117 (antibody, V domains shown)
VH: DVQLQESGPGLVKPSQSLSLTCSVTGYSITSGYYWNWIRQFPGNKLEWMGYISYDGSNNYNPSLKNRISITRDTSKNQFFLKLNSVTTEDTATYYCTKGGYGYYFDYWGQGTTLTVSS
VL: DIQMTQSPASLSASVGETVTITCRASGNIHNYLAWYQQKQGKSPQLLVYNAKTLADGVPSRFSGSGSGTQYSLKINSLQPEDFGSYYCQHFWSTPPTFGGGTKLEIKR
In turn, B6 gave an EC50 in assay [1] of 0.629 nM. In addition, the Kd in assay [2] is 2.73 nM.
